Test results as given in the supplement of paper PMC12764529.
± gives the half width of the 95% confidence interval.

Legend:
[1] = folding stability dG unfold from trypsin proteolysis; higher = more stable
Summary of the method: (§1)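 Unfolding free energy was derived, per protease or combined, against a sequence-predicted unfolded-state K50 and a shared folded-state K50, starting from K50 inferred by Bayesian fitting of sequencing counts. Digestion with trypsin and chymotrypsin was carried out on designed mini-proteins under 80 residues without cysteine in a PA-tagged cDNA display construct. Only designs with AlphaFold2 dimer inter-PAE above 15 were kept.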

[2] = folding stability dG unfold from chymotrypsin proteolysis; higher = more stable
Summary of the method: as §1

[3] = folding stability dG unfold (combined trypsin and chymotrypsin); higher = more stable
Summary of the method: as §1

Row | Sequence | folding stability dG unfold [1] [kcal/mol] | folding stability dG unfold [2] [kcal/mol] | folding stability dG unfold [3] [kcal/mol]
1 | SAGGSAGGSAGPKPLATITLPYPDNASVTITVTPNGVLIDPDPNITNPEVEKAVADALTDSAGGSAGGSAGG [r11_372_TrMRF] | 1.55 ± 0.11 | 1.07 ± 0.12 | 1.41 ± 0.099
2 | SAGGSAGGSAGGMPVEVTTLETRKDPAGTTTEITLDPKTGRTIIVTKYPNGGSETTVVESAGGSAGGSAGGS [r10_1118_JUSTAS] | 0.788 ± 0.069 | 0.504 ± 0.065 | 0.622 ± 0.17
3 | SAKIEVYELPDGSKEIVFEFGDKVIRVTFFPDYPLAVVEVFDPPKDEVVKTIPVRADDLEDTIKKILEESAG [r14_583_TrMRF] | 1.8 ± 0.096 | 3.07 ± 0.049 | 2.67 ± 0.049
4 | SAGGSAGGSAKTVVINIKDLKLSKDGKLTVEEIKKRIKELLKKKGIKKVTVKTVEELLKALKSAGGSAGGSA [r18_72_TrROS_Hall] | 0.898 ± 0.062 | 1.41 ± 0.086 | 1.26 ± 0.074
5 | SAGGSAENDRFIVRVTIQMRNPGDGEKRTHTIPWFEFEPGKPAEEFAIDIADDFGIDNIDVEVYPLSAGGSA [r15_540_TrROS] | 1.35 ± 0.023 | 1.68 ± 0.026 | 1.57 ± 0.052
6 | SAGKKKIKIKLENGETKTLEIKPGETVEITFPNGLKATITKVKDGKIEIKVKEVYVKDKNGKWKKLKDLSAG [r5_417_TrROS_Hall] | 1.72 ± 0.066 | 2.6 ± 0.17 | 2.29 ± 0.29
7 | SAGGSAMTVTYTPSTKTITITDPSNGKPVKVTVTEEKPVVPGKNVYELTVTVPDTGGEKKILITLPSAGGSA [r15_209_JUSTAS] | 0.848 ± 0.055 | -0.192 ± 0.15 | 0.55 ± 0.11
8 | SAGGSAGGSMKIPSDYTLTPIETKDNGASTVTLEKVTYPGPSLLATFLTPPDGTVTLLEVKPVSAGGSAGGS [r20_103_JUSTAS] | 0.525 ± 0.046 | 1.24 ± 0.072 | 0.997 ± 0.065
9 | SADMVMFPMTGEFHFPGWRIKVEITLMFHFTPNGKFGPNFHPMIKIEIVPPPPPPKITEEEADKANENGSAG [r14_442_TrROS] | 3.03 ± 0.22 | 4.13 ± 0.19 | 3.59 ± 0.26
10 | SAMKIVEIVEYDKEKKKIRIKIEVNGKLLEIEIEAESEEEVEEALKKLKEELEFELPDGKKVRITEIEISAG [r14_422_TrROS_Hall] | 0.749 ± 0.15 | 2.08 ± 0.14 | 1.63 ± 0.28
11 | SAGGSAGGSAGGSDTPGNYKKVKITLKRVTLGDNNTPKVETVELEVTVPPNYTLEDVLSSAGGSAGGSAGGS [r4_283_TrMRF] | 0.976 ± 0.072 | 1.1 ± 0.14 | 1.14 ± 0.16
12 | MNIPLKEILDKAKAEGKPVVFPDGTKTLSFEPGGKATIEKPVEVPGKPGVPLETKTYTIDINEDGSVTVNDS [r1_284_JUSTAS] | -0.875 ± 0.17 | -0.279 ± 0.15 | -0.373 ± 0.095
13 | SAGGSAGGSAGKKKKKKKKKPPVTLTVEIEIEINGKKYIAKKKVKLNKDGKLEVEVEIYPSAGGSAGGSAGG [r11_555_TrROS_Hall] | 2.4 ± 0.37 | 3.23 ± 0.065 | 3.13 ± 0.41
14 | SAGGSAGGGSISIPGPGPVSATTDPVTKTLVTVTYPTSEVRIPIEGDKFTEAETTPLPPPPALTSAGGSAGG [r6_847_JUSTAS] | -0.16 ± 0.1 | 1.08 ± 0.036 | 0.708 ± 0.072
15 | SAMELSPEERAELLIEAVRRKLEEARKKGIPNKKVKVTIVLSEEEREALAKRIEEELKEEGYEVEIVPESAG [r14_908_TrROS_Hall] | 2.17 ± 0.068 | 2.61 ± 0.13 | 2.29 ± 0.17
16 | SAGGSAMLVKVTITLKKGGKEYTLEQFVEVNPPDLKIEIPPEIKEKGWEIVDIEVEEITPEEAERKSAGGSA [r15_853_JUSTAS] | 1.24 ± 0.091 | 3.19 ± 0.039 | 2.8 ± 0.28

Row | Sequence | folding stability dG unfold [1] [kcal/mol] | folding stability dG unfold [2] [kcal/mol] | folding stability dG unfold [3] [kcal/mol]
17 | SAGMEKAINLAKEYAKKLGLPLESINVTEIGNSVIIEMKIPEKGETITVNIPIHPDGTISLNIKFEKKKSAG [r5_888_JUSTAS] | 1.2 ± 0.037 | 2.623 ± 0.019 | 2.09 ± 0.087
18 | SAGGPKVIVTDPNGVKHEFENLSIPELLSSLPKNGTPILKIEIPLFNPELGGEEPLELEFIFPPELFSAGGS [r16_806_TrMRF] | 0.321 ± 0.017 | -0.417 ± 0.19 | 0.107 ± 0.083
19 | SAGGSAGGSAGGRKLAIKIEIEEVKTETRIRPDGKTETRTELRIKIEIRPVPHPDDPELLSAGGSAGGSAGG [r7_523_TrROS_Hall] | 2.99 ± 0.12 | 1.95 ± 0.056 | 2.34 ± 0.25
20 | SAGGVKEIEIPNGMRITDVDPPDGYWKIKIENPDNGKEVERPIPPGDKLKIPPNAPVTITEIEPYPPSAGGS [r16_123_TrROS] | -0.613 ± 0.27 | -0.103 ± 0.48 | < -1
21 | SAGGSAGGSAKPKVVLVEYDEKTGKFKIVFPDGKELEITGLTPEQIKELAKSLGADYVIIESAGGSAGGSAG [r3_78_TrMRF] | 3.38 ± 0.12 | 4.06 ± 0.098 | 3.83 ± 0.09
22 | MVLKVTIEITVTHPANPGKTEKLTIVVEAPTLEEALAAALEEIRRRLGLPPGAKVTVKVTVELVELPEEDLS [r1_149_TrROS_Hall] | 4.5 ± 0.18 | 5.63 ± 0.18 | 5.99 ± 0.5
23 | SAGGMTTTTTFDGPTDEAFDLPSGVKVEPEPATGGYRVELPPGREVEVTVERSTDPGTVTWTFTFKESAGGS [r16_122_JUSTAS] | 0.3 ± 0.036 | 0.531 ± 0.16 | 0.544 ± 0.078
24 | SAGGSAGGKKKYLVKITIKYVDKKTGKLVKEETITVEVSEEELEELLKKLPPGAEITKIEIYKLSAGGSAGG [r6_776_TrROS_Hall] | 2.96 ± 0.13 | 3.58 ± 0.071 | 3.4 ± 0.071
25 | SAGGSAGGSAGMKNKNYKVYTYKINIIDPGYENTTIIVEPNPAKPKAKPITIPIIIVEPASAGGSAGGSAGG [r11_257_TrMRF] | 0.57 ± 0.083 | 1.03 ± 0.18 | 0.797 ± 0.21
26 | SAGGSAGGSAKIIVNEDGYLIKITNKNGKEITIEMSEDELKELLKKLGIKKAEIVPLPKEKSAGGSAGGSAG [r3_141_TrROS_Hall] | 0.382 ± 0.075 | 2.34 ± 0.093 | 1.72 ± 0.2
27 | SAGGSAGGSAGSLELEFEFPKDTPLDKIIEELKKLIPEKDPKIEILKVEEKEGGLWIKARVSSAGGSAGGSA [r18_360_TrMRF] | 3.55 ± 0.085 | 3.11 ± 0.042 | 3.26 ± 0.05
28 | SAGGSAGGSAGNWKIKNIEPVRLPNNVHIMKFQIPGRSLIFVFDPKNGQKRWIPLKDIKPSAGGSAGGSAGG [r17_286_TrROS] | -0.301 ± 0.25 | -0.0752 ± 0.14 | -0.0705 ± 0.09
29 | SAGGSAMKLPKNVKITITKNKDGTVTITITYPDGKKITITMKIDKNGKLKFTKEQIKKLIKELAKKSAGGSA [r15_780_TrROS_Hall] | 2.74 ± 0.089 | 2.52 ± 0.082 | 2.53 ± 0.22
30 | SMKVERERRTIERTLPDGRKVKVEIDLFRPEDGKPWALIKITVTDENGVPTEREILAPAELAEKVIEELFSA [r9_189_TrMRF] | 2.34 ± 0.055 | 1.78 ± 0.039 | 2.08 ± 0.069
31 | SAGGMTVSVTADGSSYTATVKLPDGTTLTVPFTSLEELATQVREEYEKAFPDVPLERLVLEDISPTAPSAGG [r13_887_JUSTAS] | 1.77 ± 0.031 | 3.344 ± 0.021 | 2.93 ± 0.036
